Like-named read-outs stand apart in the source and are kept apart here.
T1: human MerTK-his protein (human, UniProt Q12866 21-505)
T1 construct: extracellular domain; also called hMerTK-His; human MerTK protein
T1 sequence (looked up): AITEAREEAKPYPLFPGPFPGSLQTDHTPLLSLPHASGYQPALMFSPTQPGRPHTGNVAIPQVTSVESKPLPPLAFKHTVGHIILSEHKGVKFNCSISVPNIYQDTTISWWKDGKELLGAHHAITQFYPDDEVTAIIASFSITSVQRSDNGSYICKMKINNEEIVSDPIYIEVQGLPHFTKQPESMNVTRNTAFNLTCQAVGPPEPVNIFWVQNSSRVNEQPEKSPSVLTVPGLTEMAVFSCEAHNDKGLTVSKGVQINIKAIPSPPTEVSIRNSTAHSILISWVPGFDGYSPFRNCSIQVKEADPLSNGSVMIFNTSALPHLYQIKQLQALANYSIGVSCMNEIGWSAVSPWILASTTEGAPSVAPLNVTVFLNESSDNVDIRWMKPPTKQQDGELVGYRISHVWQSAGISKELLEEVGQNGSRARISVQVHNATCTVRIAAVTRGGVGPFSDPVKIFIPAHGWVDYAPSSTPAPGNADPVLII

T2: human MerTK expressed on cells (human, UniProt Q12866 21-999)
T2 construct: whole, on cells; also called CHO-K1-hMerTK; CHO-K1-MerTK
T2 sequence (looked up): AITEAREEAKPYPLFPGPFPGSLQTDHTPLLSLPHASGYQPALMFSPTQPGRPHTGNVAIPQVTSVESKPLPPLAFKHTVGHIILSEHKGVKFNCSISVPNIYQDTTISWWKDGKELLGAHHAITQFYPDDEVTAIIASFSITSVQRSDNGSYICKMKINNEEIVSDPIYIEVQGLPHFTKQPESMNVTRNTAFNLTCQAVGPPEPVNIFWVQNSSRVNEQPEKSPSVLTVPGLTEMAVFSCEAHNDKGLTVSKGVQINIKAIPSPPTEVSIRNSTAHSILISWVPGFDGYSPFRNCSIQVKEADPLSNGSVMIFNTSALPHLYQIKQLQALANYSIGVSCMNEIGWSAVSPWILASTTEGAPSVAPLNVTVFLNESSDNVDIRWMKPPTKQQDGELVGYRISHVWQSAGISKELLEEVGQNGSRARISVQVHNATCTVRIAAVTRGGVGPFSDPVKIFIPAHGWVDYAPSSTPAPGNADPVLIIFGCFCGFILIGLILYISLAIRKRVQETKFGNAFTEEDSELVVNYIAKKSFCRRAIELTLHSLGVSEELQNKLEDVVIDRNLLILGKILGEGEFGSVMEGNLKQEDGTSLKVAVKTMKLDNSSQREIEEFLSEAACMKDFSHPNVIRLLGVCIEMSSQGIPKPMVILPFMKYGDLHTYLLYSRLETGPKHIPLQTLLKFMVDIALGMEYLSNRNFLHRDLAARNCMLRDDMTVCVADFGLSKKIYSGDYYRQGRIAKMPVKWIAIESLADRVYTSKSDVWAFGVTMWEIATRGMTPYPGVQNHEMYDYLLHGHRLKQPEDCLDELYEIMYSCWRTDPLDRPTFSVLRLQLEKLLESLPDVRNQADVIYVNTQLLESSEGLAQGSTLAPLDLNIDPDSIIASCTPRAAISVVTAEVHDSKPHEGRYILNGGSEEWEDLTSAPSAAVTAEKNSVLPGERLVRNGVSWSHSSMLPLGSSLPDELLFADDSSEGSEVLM


What was measured:
[1] = target: T1, human MerTK-his protein; assay: ELISA, plate coated with human MerTK-his, OD 450nm
Experimental: (§1) To evaluate the binding activity, the chimeric mAbs were subjected to ELISA test. Briefly, 96-well plates were coated with human or cyno MerTK-his protein at 2 μg/mL in PBS, 100 μL/well at 4° C. overnight, then blocked with 150 μL/well of 1% BSA. Five-fold dilutions of MerTK antibodies starting from 20 nM were added to each well and incubated for 1 hour at room temperature. The plates were washed with PBS/Tween-20 and then incubated with goat anti-human IgG Fe antibody conjugated with Horse Radish Peroxidase (HRP) for 30 minutes (mins) at room temperature. After washing, the plates were developed with TMB substrate and subsequent stop solution was added to complete the reaction. The signal from each well was read by spectrophotometer at OD 450 nm.
(§2) To evaluate the antigen binding activity, the humanized antibodies were subjected to ELISA test as described before.

[2] = target: T1, human MerTK-his protein; assay: SPR Biacore 8K, antibody captured on Protein A chip, 50 nM antigen
Experimental: To explore whether the humanized antibodies could maintain their binding kinetics, affinity ranking were performed with Biacore™. The antibodies were captured with a Protein A chips. Human MerTK-his protein at 50 nM was injected over captured antibodies for 180 s at a flow rate of 30 μL/min. The antigen was allowed to dissociate for 600 s. The experiment was carried out on a Biacore™ 8K. Data analysis was carried out using Biacore™ 8K evaluation software.

[3] = target: T2, human MerTK expressed on cells; assay: FACS on CHO-K1 cells overexpressing human MerTK, MFI (AF488)
[4] = target: T1, human MerTK-his protein; assay: ELISA, plate coated with human MerTK-his, OD 450nm; remark: listed apart in the source
Experimental: as §1, §2

[5] = target: T2, human MerTK expressed on cells; assay: FACS on CHO-K1 cells overexpressing human MerTK, MFI (AF488); remark: listed apart in the source

EC50 [1]	Kd [2]	koff [2]	kon [2]	EC50 [3]	EC50 [4]	EC50 [5]	Binder
0.052 nM	1.64 nM	0.00031 s⁻¹	189000 M⁻¹ s⁻¹	0.19 nM	–	–	265F11B5Hu-12 (antibody, V domains shown) VH: QVQLVQSGAEVKKPGASVKVSCKASGYTFTTYDINWVRQAPGQGLEWIGWIYPRDGYTKYNEKFKGRATLAVDTSTSTAYMELRSLRSDDTAVYFCTRGYYDNLYYFDYWGQGTTVTVSS VL: EIVLTQSPDFQSVTPKEKVTITCSASSIISSNYFHWYQQKPDQSPKLLIYRTSNLASGVPSRFSGSGSGTDYTLTINSLEAEDAATYYCQQGRSVPLTFGQGTKLEIK
–	2.19 nM	0.000475 s⁻¹	217000 M⁻¹ s⁻¹	–	0.094 nM	0.85 nM	254B4D9Hu-1 (antibody, V domains shown) VH: QVQLVQSGSELKKPGASVKVSCKASGYTFTAYGMSWVKQAPGQGLQWMGWINTYSGVPTYTDDFKGRFVFSLDTSVSTAFLQISSLKAEDTAVYFCARRAAVVAKYWYFDVWGQGTTVTVSS VL: DIQMTQSPSSLSASVGDRVTITCKSSQDINKRISWYQQKPGKAPKLLIHSTSSLQPGVPSRFSGSGSGRDFTFTISSLQPEDIATYFCLQYDNLLTFGQGTKLEIK
–	10.9 nM	0.000592 s⁻¹	54100 M⁻¹ s⁻¹	–	0.064 nM	1.1 nM	254B4D9Hu-2 (antibody, V domains shown) VH: QVQLVQSGHEVKQPGASVKVSCKASGYSFTAYGMSWVKQAPGQGLQWMGWINTYSGVPTYTDDFKGRFVFSLDTSASTAFLQISSLKAEDMAMYFCARRAAVVAKYWYFDVWGQGTTVTVSS VL: DIQMTQSPSSLSASVGDRVTITCKSSQDINKRISWYQQKPGKAPKLLIHSTSSLQPGVPSRFSGSGSGRDFTFTISSLQPEDIATYFCLQYDNLLTFGQGTKLEIK
